assay: soluble on expression in E. coli; label from the status in PepcDB or PDB records

Soluble on expression in E. coli, soluble:
MSLKDRYILAFETSCDETSVAVLKNDDELLSNVIASQIESHKRFGGVVPEVASRHHVEVITACIEEALAEAGITEEDVTAVAVTYGPGLVGALLVGLSAAKAFAWAHGLPLIPVNHMAGHLMAAQSVEPLEFPLLALLVSGGHTELVYVSEAGDYKIVGETRDDAVGEAYDKVGRVMGLTYPAGREIDELAHQGQDIYDFPRAMIKEDNLEFSFSGLKSAFINLHHNAEQKGESLSTEDLCASFQAAVMDILMAKTKKALEKYPVKTLVVAGGVAANKGLRERLATEITDVNVIIPPLRLCGDNAGMIAYASVSEWNKENFANLDLNAKPSLAFDTMEEGHHHHHH
AHHHHHHGSFEISIYLPTEIVFGPGKLEMLPKLVKKHGLSGKALIVTGRRSTKETGVLYRVQELLKQAGVESIVFDKIIPNPISTHVDEGAEIARKENVSFVVGLGGGSAIDSAKAIAMTAASGGKYWDYVPAVGGGKKPTGALPIVAIPTTHGTGTEADPYAVITNPETKEKQGIGYDVLFPKFSIVDPELMLTLPKDQTVYTSMDAFYHSIEAFLNVRANPYSDVLALDSMRRIVTYLPLAYENLRNLEARTQLAWASTEAGITETVTGVVANHALEHGLSGFYPEVPHGLGLCILGPYLFEYILDYAYEKLAIVGREVFGVYEPNDRKAAELAIKKLRDFQSLFGVNKKLRELGVKEEDIPEMARTAYRMMKPVIEATPGDLKVEDLEEIYRRAY

Soluble on expression in E. coli, not soluble:
MGSDKIHHHHHHMIKNQWYVVLSSRELKKGQLIGVTRFGEKLAFWRDSNGKVHCISDICCHRGASISHGKVLSNGERVMCPFHGFEYDSQGRVRTIPANGRNTPVPENFRVKSYPTYELADFIWIWYGDREPEKPPKYFDDITDELVYTEFKEVWNVHYSRAIENQLDPIHLPFVHYNTIGRGNRTVVDGPIVEWKDDEMFYFYVFNRIDDGTPARKPEEMDPKRKSKVYLEFKFPNIWQNHISEKIRVTAAFTPIDDDHTMIYLRFYVGLTGIKFLDKLIAVLGKPFNKIVLHQDKRVVETQIPKRSELRMGENLIPGDAPILEYRKKREALKSMQQNNRVK
MSLQMKNYQQTLKRMSDRSSGFLGVGVHKQKLGIGAIAIVVTDKDGEIVDCEMMSGVTVFSRFKPLTDFVGMSLNECKVLLQNESVDIALHGALKKIEEQMNRKENVTTEGHHHHHH
MTLNSLPLLRMGTVPLASRISTPLSLRLVSLSLERIRCAGTLRAPFPLPLYFSPGEQPLLHMALPLAARQHFLEHGYAIVPNVLSSSVVERIRSAALASTTARFRSFAHLPNVHSLLKSTPKCTDPLQDGLMSHLQKRRYILRYYRDMRRHKRRLRRAAKAFLNGRDVSELGREDMLRLSEMVCAEAQKVWSRGCTSTVKTDLQMLTAINQYRANAWMTNAQLEAVLRDNEEFVKPLSQLAEVVGGVARPVIFGDVPLLREAYGNPVGYHCLAPTIGTRTNARVSKGGGEATAVSMVLFTYTPTPLCLPPFVLRNSQHAVRRQYLHSVHAERLWRPFAPMEADIRDQLRRFQFDASVVGQPLLAAMAGPSSTPAAPVIGPGTVMVVDPHLMMAFGGNMTPQSEVLYRINVVAENARPHLMAPSWIRGWRTMPEEVHFASPVVFPPLYVE
MSLLLFQSLLRRGLLVAINFSPKVGEILECNFGNYPVSQNGPFSTTYYDGRIPPEMIKNRLVVVLNGKINGNAFIVVPLSTTRDHDKLKRGMHVEIASNVINDLQFFDQQIRWAKTDLVQQVSRNRLNRARTYRGYLNQCLPHELVADIQRAVIKSINAISLINEGHHHHHH
MNLTIIEFESNVLRDNPLNDPYKRRVGIIYPKDYEGRPILIYLSGYLSSSLTQINYNPLGEDMVSKVERLSNEGKMKGSVIVLPDMFTKVGGNQYINSSAVGMYEDFLVKELIPFLKDKFKSDKIGIFGHSSGGYGALILGMKYPNTIKAIADHAGDAYFEYVYLPTFPRAIEQLRRFKTPEEWLENYWKKENKQHREDLNTLNVVGMSAFYSPNNEKIELPFDLETGEILEDVWKKWLEKDPVRMVDKYADNLKMLKFIFIDVGKKDEFNIQYGSRTLHKKLQKYGINHYYEEFNDGHLHTNYRYDISLSLLEKKLTSE
MSHYLSPGAYLPHDAPMLLLEDVVSVSDDSAVCRVTVSPSGVLAPFLDPDGNLPGWFTLELMAQTVGVWSGWHRHQQGKNSIELGMILGARELLCTTGILPAGQTLTITVKLLMQDDRFGSFECSINDGEATGRINTFQPTAEELTTLFQQGAS

From the DeepSol protein solubility set
